Measured values reported in paper PMC7090148 (2020).

B1: Mouse OFD1, wild type [mouse] / NTAP-tagged TRAPPC12 [mouse] (parent complex)
chain 1: MAQSNMPHKSDVLSQDELRKKLYQTFKDRGVLDTLQTQLRNQLIHELMHPVLSGEVKPPSISVEGSALLIGASNSLVADHLQRCGYEYSLSVFFPESGLAKEKIFTMQDLLQLIRINPSSSLYKSLISGFDKENKKGFLMSFLKELAEYYQAKESCDAETQTSTTFPSQVSLAEKFQLIDAQFADGFPHRSKLESLETKLNEYKKEVQHQLQVEMCHKLKYFREAEITKVKMEERRKYEKELAEFQNEFERTCQAKNEALISQEKNSLERIKKHREMESKEIYAQRQLLLNDIALLRGREAELKERIETFELTQKLQEEKIKSEAEALERREQNLKNIEDTYDQKLKTELLKYQLELKDDYITRTNKLLEEERKNKEKTIHLQEELTVINSKKEELSKSVKHMKEVELELESVKAQFLAISKQNHLLNEKVREMSDYSQLKEEKVELQAQNKLLKLQLEETRNENLRLLDRITQPPPELVIFQKELQKTEKAMELEHKDFETHRQALEKQLQSEIENSAQLRTQIAEYDASVKRLTVQVAELKSQLKQTQIALENEVYRNPKHSLIHSLSGLLLSGKMAPHSEDKSGDFLNVPLEQNKVIAGAVMSRVPPYVNTATEASSPESDFEFIASSTKAKVRELEQEAERLEKAFRTYYQRATQNPSTSPQPAKSPPSVNSVAALRSIASSSMDRPVSAEDRVVSEQPLGDMLKEEMSDMSKAFMGSVVSRPRRTSSSTRLSSTPHPKSRRSLDNEMYLEGLGRLHMTSSSPLLDRVSASPAASPSPCPERTAQASPVPSRHSFSGLPEQNACLYQRQTETQDKSELSNVDKQSLKDEKFEPPFRWNKTEQFEAEGLHPAGDMPGIDFAVATQSSRLISYDYPSAVQSQTGEQDEQELWELHMKERRQREEQRHNERQEALERERRELGKLEQERRMIEESLKMEMEEELEKSVQDQKDKSAHCENTLEKYMKIIQQRQEESNADKSSKKSGKECSLVDMMMPSDKDESSPGFSHEEPDDMW
chain 2: METAKDGEQSPSEASPSAQAGPENIPEPMSREEESQPLYHEETIDLGGDEFASEENEPTSEGSHNFGDKLNEHMMESVLISDSPNNSEGDVGDLGCLQDVGEPPRGATDHRLPSSTDKEVVDTLSNGSETDGDDTPRDISDMTPDSRASLKEDSTQEDVTSMPALENAATEEVGPKDSLAPREEQTSEVSSNQSSSKDEPLPVCTIFSQATATPSQPHLFLQDGFESQMVKSPSFSSTSETSAKTPPPMVQPSPSLSTFFGDTMSSNSLASDFFDSFTTSTFISVSNPNAGSPVPEKLSSLTAPVGEKSPDSTSPSYSTRMDRSESGVSRAPLDVPESPKPFSQIQAVFAGSDDPFATALSMSEMDRRNDAWLPSQATREVLMSVATQQYGTVFIDKENLTMPGLKFDNIQGDAVKDLMLRFLGEKAAAKRQVLNASSVEQSFVGLKQLISCRNWRAAVDLCGRLLTAHGQGYGKNGLPTSHTTDSLQLWFVRLALLVKLGLFQNAEMEFEPFGNLDQPDLYYEYYPHVYPGRRGSMVPFSMRILHAELQQYLGNPQESLDRLHRVKTVCSKILANLEQGLAEDGGLSSVTQESRQASVQLWRSRLGRVLYSMANCLLLMKDYVLAVDAYLTVIKYYPEQEPQLLSGIGRILLQIGDIKTAEKYFQDVEKVTQKLDGLQGKIMVLMNRAFLYLGQNNFAEAHKFFTEILRMDPTNAVANNNAAVCLLYLGKLKDSLRQLEAMVQQDPRHYLHESVLFNLTTMYELESSRSMQKKQSLLEAVASKEGDSFNTQCLKLA

Variants of: B1
Assay: co-IP (IP: anti-Myc, immunoblot); IP: anti-Myc; 0.5% input; parent: 1

| ratio to parent | Variant |
| --- | --- |
| 0.97 | chain 1 A78T |
| 0.39 | chain 1 S73F |
| 0.91 | chain 1 G137S |
| 0.98 | chain 1 S435R |
